Substitutions are numbered along the chain they refer to.
Legend:
GST-ZZS05 fusion protein [1] = biological target: T1, GST-ZZS05 fusion protein (UniProt P08515 1-218 = GST); assay: Biacore SPR as in Example 3.3
GST-ZZS01 fusion protein [2] = biological target: T2, GST-ZZS01 fusion protein (UniProt P08515 1-218 = GST); assay: Biacore SPR, 25 C; GST-antigen captured on anti-GST CM5 chip, antibody injected
GST-ZZS01 fusion protein [3] = biological target: T2, GST-ZZS01 fusion protein; assay: Biacore SPR as in Example 3.3
GST-ZZS05 fusion protein [4] = biological target: T1, GST-ZZS05 fusion protein; assay: Biacore SPR, 25 C; GST-antigen captured on anti-GST CM5 chip, antibody injected

T2 sequence (P08515 1-218, tags or fused parts left off): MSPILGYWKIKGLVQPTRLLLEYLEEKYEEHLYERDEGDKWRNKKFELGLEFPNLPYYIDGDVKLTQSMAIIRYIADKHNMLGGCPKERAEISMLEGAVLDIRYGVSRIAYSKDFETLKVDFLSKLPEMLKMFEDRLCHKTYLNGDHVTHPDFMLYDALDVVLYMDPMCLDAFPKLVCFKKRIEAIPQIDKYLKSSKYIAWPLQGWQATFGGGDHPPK
T1 sequence (P08515 1-218, tags or fused parts left off): as above

B1: h29 (antibody, V domains shown)
VH: QVQLVESGGGVVQPGRSLTLSCAASGFTFSRYGMHWVRQAPGKGLEWVTVITYDGRKKYYADSVKGRFTISRDNSQNTLSLQMNSLRAEDTAVYYCAKDLLIGYGMDVWGQGTTVTVSS
VL: DIVMTQSPDSLAVSLGERATIKCKSSQSVFFSSSNKNFLTWYQQKPGQPPKLLIYWASTRESGVPDRFSGSGSGTDFTLTINNLQAEDVTVYYCQQCFSTPYSFGQGTKLEIKR
Kd (GST-ZZS05 fusion protein [1]): 1.2 nM

B2: murine monoclonal antibody 1D6 (antibody, V domains shown)
VH: QIQLVQSGPELKKPGETVKISCKASGYTFTNYAVNWVIQAPGKGLKWMGWINAYTGEPTYADDFKGRFAFSLETSASTAYLQINNLKNEDMGIYFCARGGYDTYALDYWGQGTSVTVSS
VL: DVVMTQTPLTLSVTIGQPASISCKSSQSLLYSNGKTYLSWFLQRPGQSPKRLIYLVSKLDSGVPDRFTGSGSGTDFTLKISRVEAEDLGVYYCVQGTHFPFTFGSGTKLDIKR
notes: also called 106 (anti-zzs01); ID6
Kd (GST-ZZS01 fusion protein [2]): 4.82 nM
koff (GST-ZZS01 fusion protein [2]): 1.19e-05 s⁻¹
kon (GST-ZZS01 fusion protein [2]): 2480 M⁻¹ s⁻¹

B3: h12 (antibody, V domains shown)
VH: QVQLVESGGGLVKPGGSLRLSCAASGFSFSDSYMSWLRQAPGKGLEWVSYISSSSSYTKYTDSVKGRFTISRDNAKNSLYLQMSSLRAEDTAVYYCAREGSPGGQGTLVTVSS
VL: DVVMTQSPLSLPVTLGQPASFSCRSSQSLVFTDGNTFLSWFLQRPGQSPRRLIYRVSNRDPGVPDRFSGSGSGTDFTLKISRVEAEDVGVYYCMQGTQWPFTFGPGTKVDIKR
Kd (GST-ZZS01 fusion protein [3]): 6.03 nM

B4: murine monoclonal antibody F11 (antibody, V domains shown)
VH: EVQLQQSGPELVKPGASVKISCKTSGYTFTEYTMHWVKQSHGKTLEWIGGIYPNNSGTRYNQKFRGKATLTADKSSSTAYMELRSLTTEDSAVYYCHRYELYWYFDVWGAGTTVTVSS
VL: DIVLTQSPASLAVSLGQRATISCRASKSVSTAGYSYMHWYQQKPGQPPKLLIYLTSNLESGVPARFSGSGSGTDFTLNIHPVEEEDAATYYCQHSREVPYTFGGGTKLEIKR
notes: also called F11 (anti-zzs05)
Kd (GST-ZZS05 fusion protein [4]): 6.9 nM
koff (GST-ZZS05 fusion protein [4]): 0.000949 s⁻¹
kon (GST-ZZS05 fusion protein [4]): 137000 M⁻¹ s⁻¹

B5: h4 (antibody, V domains shown)
VH: QVQLVESGGGLVKPGGSLRLSCAASGFTFSDHYMSWIRQTPGKGLEWVSYISSSGTYTNYADSVKGRFIISRDNAKNSLFLQMNSLRAEDTAVYYCAREGSPGGQGTLVTVSS
VL: DVVMTQSPLSLPVTLGQPASISCRSSQSLVFSDGNTYLNWFQQRPGQSPRRLIYKVSDRDPGVPERFSGSGSGTDFTLKISRVEAEDIGVYYCMQGSHWPFTFGPGTKVDIKR
Kd (GST-ZZS01 fusion protein [3]): 2.86 nM

B6: 18 (antibody, V domains shown)
VH: B3 VH with S28T, D31A, L37I, S56T, K59N, T61A, S84D, V93M, Y95F
VL: B3 VL with P18S, F21I, F31Y, T32S, N35D, L42Q, R55M, V90I, Q98N, K108R
Kd (GST-ZZS01 fusion protein [3]): 3.46 nM

B7: h14 (antibody, V domains shown)
VH: B5 VH with K13E, T40A, K43R, S53N, T56G, I69T, F80Y
VL: B5 VL with I21M, F31D, N39S, P61S, E65D, S70G, I88V, V90I, S97T, H98R
Kd (GST-ZZS01 fusion protein [3]): 4.39 nM

B8: h22 (antibody, V domains shown)
VH: B5 VH with D31A, T40A, S53P, G55S, T56S, N59V, I69T
VL: B5 VL with S28N, F31D, N39S, P61S, E65D, S81N, V90I
Kd (GST-ZZS01 fusion protein [3]): 0.104 nM

B9: h2 (antibody, V domains shown)
VH: B5 VH with D31A, T40A, S53P, G55S, T56S, N59V, I69T
VL: B5 VL with S25P, F31D, N39S, P61S, E65D, G73V, I88V, V90I, S97T
Kd (GST-ZZS01 fusion protein [3]): 5.24 nM

B10: h19 (antibody, V domains shown)
VH: B3 VH with L37I, K59N, T61A, S84N, A88V
VL: B3 VL with M4L, F21I, F31D, T32S, F37Y, L42Q, P61S, Q98H
Kd (GST-ZZS01 fusion protein [3]): 3.53 nM

B11: h21 (antibody, V domains shown)
VH: B5 VH with D31A, T40A, S53P, G55S, T56S, N59V, I69T
VL: B5 VL with S26T, F31D, N39S, P61S, E65D, V90I, S97T
Kd (GST-ZZS01 fusion protein [3]): 1.48 nM

B12: h5 (antibody, V domains shown)
VH: B3 VH with S28T, S32H, L37I, S49A, S56T, T61G, S84N
VL: B5 VL with N39S, Y54F, P61S, E65D, V83M, I88V, S97T, H98Q
Kd (GST-ZZS01 fusion protein [3]): 10.1 nM

B13: h20 (antibody, V domains shown)
VH: B3 VH with L37I, K59N, T61V, S84N, A88V
VL: B3 VL with F21I, F31D, T32S, F37Y, L42Q, P61S, Q98H, K112R
Kd (GST-ZZS01 fusion protein [3]): 2 nM

B14: h13 (antibody, V domains shown)
VH: B3 VH with T61A, S84N
VL: B3 VL with M4L
Kd (GST-ZZS01 fusion protein [3]): 3.66 nM

B15: h17 (antibody, V domains shown)
VH: B5 VH with K13E, T40A, K43R, S53N, T56G, I69T, F80Y
VL: DVVMTQSPLSLPVTLGQPASMSCRSSQSLVDSDGNTYLSWFQQRPGQSPRRLIYKVSDRDSGVPDRFSGGGSGTDFTLKIRRVEAEDVGIYYCMQGTRWPFTFGPGTKVDIKR
Kd (GST-ZZS01 fusion protein [3]): 3.18 nM

B16: h10 (antibody, V domains shown)
VH: B3 VH with A23E, S28T, D31A, S32H, L37I, W47Y, K59N, T61V, S84N, A88V
VL: B15 VL with M4L, M21I, Q42H, G70S, R81S, I90V, Q95E, R98H
Kd (GST-ZZS01 fusion protein [3]): 0.0847 nM

B17: h11 (antibody, V domains shown)
VH: QVQLVESGGGLVKPGGSLRLSCEASGFTFSAHYMSWIRQAPGKGLEYVSYISGSSSYTNYVDSVKGRFTISRDNAKNSLYLQMNSLRVEDTAVYYCAREGSPGGQGTLVTVSS
VL: B15 VL with M4L, M21I, Q42H, G70S, R81S, I90V, Q95E, R98H
Kd (GST-ZZS01 fusion protein [3]): 0.652 nM

B18: h16 (antibody, V domains shown)
VH: B17 VH with G53S, V61A, V88A
VL: B15 VL with M4L, M21I, Q42H, G70S, R81S, I90V, Q95E, R98H
Kd (GST-ZZS01 fusion protein [3]): 2.17 nM

B19: h15 (antibody, V domains shown)
VH: B3 VH with K13R, S28T, S32H, L37I, S53G, T61A, S84N
VL: B3 VL with M4L, F21I, T32S, S39A, L42Q, V56I, P61S, G73D
Kd (GST-ZZS01 fusion protein [3]): 5.78 nM

B20: h25 (antibody, V domains shown)
VH: EVQLVESGGGLVKRGGSLRLSCAASGFTFSSYSMHWVRQAPGKGLEWVSSISSRSTYIYYADSVKGRFTISRDNAKNSLYLQMNSLSAEDTAVYYCARGSGSYYVFDYWGQGTLVTVSS
VL: ELVMTQSPATLSVSPGERATLSCRASQSVSSNLAWYQQKPGQAPRLLIYGASSRATNIPARFSGSGSGTEFTLTISSLQSEDFAVYYCQQYDNWPMYSFGQGTKLEIKR
Kd (GST-ZZS01 fusion protein [3]): 0.32 nM

B21: h1 (antibody, V domains shown)
VH: B20 VH with R14P, H35S, T56N, M83V, S87R
VL: EIVMTQSPATLSVSPGDRATLSCRASQSISSDLAWYQQKPGQAPRLLIYAASTRATGFPARFSGSGSGTEFTLTISSLQPEDFAVYYCQQYNNWPMYAFGQGTKLEIKR
Kd (GST-ZZS01 fusion protein [3]): 0.289 nM

B22: h27 (antibody, V domains shown)
VH: B20 VH with R14P, H35S, T56N, F68I, S87R
VL: B21 VL with I2L, V13M, S30R, A50D, F58I, T74S, P80S, A98T
Kd (GST-ZZS01 fusion protein [3]): 0.16 nM
